Literature values in paper PMC3898597.

Experiments:
Experiment in all cases: SPR
[1] = molecular target: transducin heterotrimer (Gt) (Bos taurus) (UniProt P04695)
Gαt (Bos taurus) = Gαt (Bos taurus) (UniProt P04695)
Gβ1γ1 (Bos taurus) = Gβ1γ1 (Bos taurus) (UniProt P62871)

Sequence of rhodopsin (P02699 whole entry): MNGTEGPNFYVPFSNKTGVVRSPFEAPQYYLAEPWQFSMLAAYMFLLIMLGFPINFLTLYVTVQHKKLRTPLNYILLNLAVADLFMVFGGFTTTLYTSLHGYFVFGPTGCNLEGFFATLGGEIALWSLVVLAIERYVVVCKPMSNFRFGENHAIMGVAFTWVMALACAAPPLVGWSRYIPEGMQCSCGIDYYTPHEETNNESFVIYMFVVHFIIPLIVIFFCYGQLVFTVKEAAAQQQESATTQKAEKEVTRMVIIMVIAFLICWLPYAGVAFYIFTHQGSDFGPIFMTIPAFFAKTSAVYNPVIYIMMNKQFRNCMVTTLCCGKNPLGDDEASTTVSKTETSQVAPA
Sequence of transducin heterotrimer (Gt) (Bos taurus) (P04695 2-350, chain 1 of 3): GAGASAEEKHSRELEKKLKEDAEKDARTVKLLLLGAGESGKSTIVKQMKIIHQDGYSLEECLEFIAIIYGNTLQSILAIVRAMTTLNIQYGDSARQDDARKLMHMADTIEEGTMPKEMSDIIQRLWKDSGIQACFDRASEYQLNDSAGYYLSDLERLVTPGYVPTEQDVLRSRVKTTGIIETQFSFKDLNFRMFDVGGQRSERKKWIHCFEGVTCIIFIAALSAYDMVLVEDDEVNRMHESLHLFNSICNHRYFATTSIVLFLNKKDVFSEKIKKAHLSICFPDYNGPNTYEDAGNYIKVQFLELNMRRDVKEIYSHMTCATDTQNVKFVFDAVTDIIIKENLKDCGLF
Sequence of transducin heterotrimer (Gt) (Bos taurus) (P62873 2-340, chain 2 of 3, further chain): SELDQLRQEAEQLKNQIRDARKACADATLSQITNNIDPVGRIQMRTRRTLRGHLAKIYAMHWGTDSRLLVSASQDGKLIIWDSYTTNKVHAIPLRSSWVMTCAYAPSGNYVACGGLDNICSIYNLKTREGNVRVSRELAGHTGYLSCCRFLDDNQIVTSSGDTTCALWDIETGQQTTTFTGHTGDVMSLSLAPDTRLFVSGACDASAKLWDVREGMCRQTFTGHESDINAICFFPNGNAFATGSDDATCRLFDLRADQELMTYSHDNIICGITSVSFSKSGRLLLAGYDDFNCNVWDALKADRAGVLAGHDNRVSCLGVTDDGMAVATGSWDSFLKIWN
Sequence of transducin heterotrimer (Gt) (Bos taurus) (P02698 2-71, chain 3 of 3, further chain): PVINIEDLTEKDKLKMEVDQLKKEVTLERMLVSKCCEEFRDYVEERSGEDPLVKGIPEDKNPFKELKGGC
Sequence of Gαt (Bos taurus) (P04695 2-350): as the sequence (P04695 2-350, chain 1 of 3) above
Sequence of rhodopsin (recombinant) (P02699 whole entry): as the sequence (P02699 whole entry) above

Kd [1] [nM]	Kd (Gαt (Bos taurus)) [nM]	Kd (Gβ1γ1 (Bos taurus)) [nM]	Substance
9.1	–	–	rhodopsin (recombinant) (from UniProt P02699)
13.6	300	300	rhodopsin (from UniProt P02699)
